Reference: patent US20190183966A1

The substances below were run against human FGF21 receptor (FGFR1) stably expressed on PathHunter U2OS cells (human) (UniProt P11362) (assay: cell-based or functional assay).
Sequence of human FGF21 receptor (FGFR1) stably expressed on PathHunter U2OS cells (human) (P11362 22-822): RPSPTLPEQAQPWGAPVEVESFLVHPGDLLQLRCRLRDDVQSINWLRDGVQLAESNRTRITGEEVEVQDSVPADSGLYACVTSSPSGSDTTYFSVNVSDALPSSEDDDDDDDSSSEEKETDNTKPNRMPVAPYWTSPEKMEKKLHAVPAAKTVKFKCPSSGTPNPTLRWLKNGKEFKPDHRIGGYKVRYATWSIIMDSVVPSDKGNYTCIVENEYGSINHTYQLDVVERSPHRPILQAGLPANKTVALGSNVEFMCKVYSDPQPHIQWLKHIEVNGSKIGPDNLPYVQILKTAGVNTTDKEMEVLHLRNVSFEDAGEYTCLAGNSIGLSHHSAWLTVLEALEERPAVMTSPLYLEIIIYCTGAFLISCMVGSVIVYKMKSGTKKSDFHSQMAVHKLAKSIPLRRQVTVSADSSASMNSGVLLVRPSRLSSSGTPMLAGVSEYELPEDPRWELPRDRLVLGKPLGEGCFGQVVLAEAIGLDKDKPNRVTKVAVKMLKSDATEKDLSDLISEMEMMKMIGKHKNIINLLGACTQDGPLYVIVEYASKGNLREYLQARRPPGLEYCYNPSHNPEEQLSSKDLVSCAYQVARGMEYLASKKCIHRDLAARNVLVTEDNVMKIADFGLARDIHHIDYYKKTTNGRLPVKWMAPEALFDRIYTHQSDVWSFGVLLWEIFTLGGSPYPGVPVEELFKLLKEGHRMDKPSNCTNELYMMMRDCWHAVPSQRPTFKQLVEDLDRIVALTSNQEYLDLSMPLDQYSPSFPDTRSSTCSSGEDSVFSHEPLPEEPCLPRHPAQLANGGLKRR
Work on “VitD-(25)-PEG2K-FGF21 (from UniProt Q9NSA1 32-209) (ligand)” yielded an EC50, recruitment of the co-receptor beta-Klotho of 0.13 µg/mL. “FGF21 protein with I3C substitution and His6 tag (from UniProt Q9NSA1 32-209) (ligand)” was tested, and the EC50, recruitment of the co-receptor beta-Klotho was 0.16 µg/mL. “VitD-(3)-PEG2K-FGF21 (from UniProt Q9NSA1 32-209) (ligand)” gave an EC50, recruitment of the co-receptor beta-Klotho of 0.4 µg/mL.
